Legend:
[1] = target: STF-1 FPWMK to AAGGQ mutant (UniProt P52947 P52947:1-283, FPWMK to AAGGQ); assay: EMSA; wild-type binding activity; conditions: label: 32P
[2] = target: T1, STF-1 (IPF1/IDX-1/PDX1) (UniProt P52947 P52947:1-283); assay: EMSA; high affinity site; conditions: tags: GST fusion (pGEX3X, E. coli), GST removable by factor Xa; label: 32P
[3] = target: T2, STF-1 + Pbx1 heterodimer (UniProt P52947;P40424 P52947:1-283,P40424:1-430); assay: EMSA; no heteromeric complex; no synergy in reporter assay; conditions: tags: STF-1 recombinant from E. coli; Pbx1 in vitro translated in reticulocyte lysate; label: 32P
T2 sequence (P52947 whole entry, chain 1 of 2): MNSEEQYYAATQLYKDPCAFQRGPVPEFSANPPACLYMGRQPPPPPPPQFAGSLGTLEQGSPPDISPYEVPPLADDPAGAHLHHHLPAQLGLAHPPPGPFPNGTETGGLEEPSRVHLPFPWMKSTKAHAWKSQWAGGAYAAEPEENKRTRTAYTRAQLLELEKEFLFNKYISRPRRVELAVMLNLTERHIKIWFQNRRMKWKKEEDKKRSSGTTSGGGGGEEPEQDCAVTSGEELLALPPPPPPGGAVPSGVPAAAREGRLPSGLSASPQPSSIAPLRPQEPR
T2 sequence (P40424 whole entry, chain 2 of 2): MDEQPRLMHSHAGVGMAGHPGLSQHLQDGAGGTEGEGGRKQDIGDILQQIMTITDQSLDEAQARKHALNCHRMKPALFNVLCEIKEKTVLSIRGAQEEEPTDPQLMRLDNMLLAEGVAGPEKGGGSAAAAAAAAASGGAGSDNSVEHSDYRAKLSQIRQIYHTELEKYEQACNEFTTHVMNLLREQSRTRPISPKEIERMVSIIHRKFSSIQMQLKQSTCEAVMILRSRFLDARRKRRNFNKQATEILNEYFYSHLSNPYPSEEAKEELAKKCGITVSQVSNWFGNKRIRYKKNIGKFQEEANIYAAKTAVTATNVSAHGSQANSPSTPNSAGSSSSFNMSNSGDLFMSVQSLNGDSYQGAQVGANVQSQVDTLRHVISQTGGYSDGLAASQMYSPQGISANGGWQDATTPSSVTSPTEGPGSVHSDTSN
Description: (§1) Gel mobility shift assays were performed exactly as described previously (20) using 0.1 ng of end-labeled double stranded oligonucleotide whose sequences are presented in FIG. 2C. For off-rate analysis, the TSEII probe was first incubated with the proteins at room temperature for 30 minutes, then a 1000-fold excess of unlabeled TSEII oligonucleotide was added and aliquots were loaded at various time points on a running gel. In supershift assays, TU6 nuclear cell extract was preincubated with 1 µl of Pbx (11) or STF-antiserum (20) for 15 minutes at room temperature before adding the TSEII probe.
To determine whether Pbx and STF-1 can bind cooperatively to other STF-1 target sites besides TSEII, gel shift assays were performed with the recombinant STF-1 and Pbx proteins on the somatostatin TSEI or insulin P and Flat elements, sites which bind STF-1 and which are required for islet cell restricted expression of the rat somatostatin and insulin I genes, respectively, in pancreatic cells (FIG. 2D and FIG. 2E). In contrast to the TSEII element (FIG. 2D, lanes 1–4), no heteromeric STF-1-Pbx complex was observed on the TSEI, P or FLAT elements. Indeed, heteromeric STF-1 complexes are also undetectable when the TSEI, P, or FLAT elements are used in gel shift assays of crude pancreatic cell extracts (data not shown) (20). […]

[4] = target: T2, STF-1 + Pbx1 heterodimer; assay: EMSA; no heteromeric complex; conditions: tags: STF-1 recombinant from E. coli; Pbx1 in vitro translated in reticulocyte lysate; label: 32P
Description: as §1
(§2) To determine whether Pbx and STF-1 can bind cooperatively to other STF-1 target sites besides TSEII, gel shift assays were performed with the recombinant STF-1 and Pbx proteins on the somatostatin TSEI or insulin P and Flat elements, sites which bind STF-1 and which are required for islet cell restricted expression of the rat somatostatin and insulin I genes, respectively, in pancreatic cells (FIG. 2D and FIG. 2E). In contrast to the TSEII element (FIG. 2D, lanes 1–4), no heteromeric STF-1-Pbx complex was observed on the TSEI, P or FLAT elements. Indeed, heteromeric STF-1 complexes are also undetectable when the TSEI, P, or FLAT elements are used in gel shift assays of crude pancreatic cell extracts (data not shown) (20).

[5] = target: T1, STF-1 (IPF1/IDX-1/PDX1); assay: EMSA; conditions: tags: GST fusion (pGEX3X, E. coli), GST removable by factor Xa; label: 32P
Description: as §1, §2

[6] = target: T2, STF-1 + Pbx1 heterodimer; assay: EMSA; minimal effect on cooperativity; conditions: tags: STF-1 recombinant from E. coli; Pbx1 in vitro translated in reticulocyte lysate; label: 32P
Description: Gel mobility shift assay using TSE II oligonucleotide plus STF-1 and/or Pbx as indicated over each lane. TNT, control lysate. […] Off-rate analysis of STF-1 and STF-1 Pbx complexes using somatostatin TSE II oligonucleotide as probe. Time (in minutes) after addition of excess unlabeled TSE II oligo as indicated. Complexes C1 and C2, corresponding to STF-1 monomer and STF-1/PBX heterodimer, respectively, as indicated. […] TSEII, wild-type TSE II oligonucleotide. P and FLAT, insulin I promoter elements which recognize STF-1 with high affinity. TSEI, somatostatin promoter element which binds STF-1. PBX, in vitro translated PBX protein added to binding reactions; STF, full length recombinant STF-1 protein. […] Brackets indicate consensus TAAT motifs which were targeted for mutagenesis. […] Transient transfection assay of GC cells using STF-1 and E2A-Pbx effector plasmids as indicated below each bar. […] Activities were normalized to co-transfected RSV-CAT control plasmid.
as §1, with “In supershift assays, TU6 nuclear cell extract was preincubated with 1 µl of Pbx (11) or STF-antiserum (20) for 15 minutes at room temperature before adding the TSEII probe.” left out

T1 sequence (P52947 whole entry, the tested form may be a part, one chain of several): as the sequence (P52947 whole entry, chain 1 of 2) above
Chain of STF-1 FPWMK to AAGGQ mutant (P52947 other isoform, or with tags, fused parts or gaps FPWMK to AAGGQ | mutant): as the sequence (P52947 whole entry, chain 1 of 2) above, with F119A, P120A, W121G, M122G, K123Q counted along it

B1: insulin I P element (dsDNA)
DNA 1: GATCTAGAGCCCTTAATGGGCCAAA
DNA 2: GATCTTTGGCCCATTAAGGGCTCTA
**Q.** Does B1 bind [1]?
**A.** binds

**Q.** Does B1 bind [2]?
**A.** binds

**Q.** Does B1 bind [3]?
**A.** no binding

B2: somatostatin TSEI (dsDNA)
DNA 1: GATCTTGCGAGGCTAATGGTGCG
DNA 2: GTACCGCACCATTAGCCTCGCAA
**Q.** Does B2 bind [4]?
**A.** no binding

**Q.** Does B2 bind [5]?
**A.** binds

B3: TSEII M3 (dsDNA)
DNA 1: GATCTCAGTAATTATACATGCA
DNA 2: GTACTGCATGTATAATTACTGA
**Q.** Does B3 bind [6]?
**A.** binds
